This experiment concerns the target T1, β2m (12 kDa non-polymorphic light chain) (human, UniProt P61769 21-119).
T1 construct: No recombinant β2m was added; It came from the human HEK293 cells and co-purified under native conditions; also called beta-2-microglobulin
As to the kind of experiment: immunoblot of the purified protein with anti-β2m antibody (co-purification under native conditions). The method, then:
Human leukocyte antigens are heterodimeric molecules comprised of glycosylated heavy chains non-covalently associated with a 12 kDa non-polymorphic light chain called β2m. PurifiedrsHLA-G1 (10 to 100 ng) and rsHLA-G2 (10 to 1000 ng) were separated on 15% SDS-PAGE, transferred to nitrocellulose membranes and immuno-detected with anti-Flag M1 antibody or anti-β2m, as shown in FIG. 6. Only rsHLA-G1 was positive for β2m. […] To produce the immunoblot of FIG. 6, purified recombinant sHLA-G1 (10-100 ng) and purified recombinant sHLA-G2 (10-1000 ng) were separated using 15% PAGE-SDS and electrotransferred to nitrocellulose membranes. One blot was detected with anti-Flag-M1 antibody and the other with a mouse anti-β2m. This experiment provides evidence that sBLA-G2 is produced as free alpha chains, while sHLA-G1 is bound to β2m.

T1 sequence (P61769 21-119 limits assumed): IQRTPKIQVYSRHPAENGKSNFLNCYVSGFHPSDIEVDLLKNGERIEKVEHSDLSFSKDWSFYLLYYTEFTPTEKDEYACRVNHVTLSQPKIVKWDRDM

B1: recombinant soluble HLA-G2 (other)
MHC heavy: APLADYKDDDDKLAGSHSMRYFSAAVSRPGRGEPRFIAMGYVDDTQFVRFDSDSACPRMEPRAPWVEQEGPEYWEEETRNTKAHAQTDRMNLQTLRGYYNQSEANPPKTHVTHHPVFDYEATLRCWALGFYPAEIILTWQRDGEDQTQDVELVETRPAGDGTFQKWAAVVVPSGEEQRYTCHVQHEGLPEPLMLRWSKEGDGGIMSVRESRSLSEDL
modifications: glycosylated
notes: Secreted from HEK293 cells; The first amino acid of the α3 domain is asparagine, not aspartic acid as in sHLA-G1; Produced as free alpha chains; also called rsHLA-G2; sHLA-G2
Take B1: the binding result is reported as “no binding (tested: up to 1 µg)”.

The record behind these values is US20040044182A1 (published 2004).
